Source: article PMC13669270, “The isolated HEPN domain of SACSIN exhibits RNA-binding activity”

Assays:
[1] = target: T1, HEPN domain of SACSIN (tag removed) (UniProt Q9NZJ4 4441-4579); assay: BLI; BLI: 20 mM potassium phosphate pH 7.4, 150 mM KCl, 0.05% Tween-20, 25 C; pull-down: PBS, 2 mM MgCl2, 0.2% NP-40, 0.05% BSA, RNase inhibitor, room temperature; settings: protein: recombinant; tags: GST removed by thrombin; chain copies: 2; label: 5' biotin; 1 strand; two putative G-quadruplex-forming stretches
T1 sequence: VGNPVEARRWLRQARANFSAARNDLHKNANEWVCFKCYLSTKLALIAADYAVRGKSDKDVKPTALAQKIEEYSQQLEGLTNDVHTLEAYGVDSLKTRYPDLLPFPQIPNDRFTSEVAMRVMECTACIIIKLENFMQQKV

[2] = target: T1, HEPN domain of SACSIN (tag removed); assay: BLI; 75 nM to 10 uM protein; BLI: 20 mM potassium phosphate pH 7.4, 150 mM KCl, 0.05% Tween-20, 25 C; pull-down: PBS, 2 mM MgCl2, 0.2% NP-40, 0.05% BSA, RNase inhibitor, room temperature; settings: protein: recombinant; tags: GST removed by thrombin; chain copies: 2; label: biotin; 1 strand

Q: For CGGGGGCGGCGGCGGCGGCGGCGGCAGCGGGG (ssRNA) [GC-rich RNA 32 nt (predicted HEPN interacting RNA)], which Kd [1] is on record?
A: Its Kd is 2600 ± 300 nM.

Q: Does AACCAACUUUCGAUCUCUUGUAGAUCUGUUCU (ssRNA) [non-GC-rich RNA 32 nt] bind [2]?
A: Result: no binding
